From patent publication US12006503B2, “Fusion proteins and methods thereof” (The Trustees of Columbia University in the City of New York, priority 2012, dated 2024) come the findings set out here.

One test concerns Rat1A cells. Put plainly: Karyotype analysis (chromosome counts, aneuploidy) of Rat1A cells. Type of test: cell-based, rat. The following applies: Rat1A cells, 100 cells counted. As to the method: Distribution of chromosome counts of cells arrested in mitosis and analyzed for karyotypes using DAPI. Chromosomes were counted in 100 metaphase cells for each condition to determine the ploidy and the diversity of chromosome counts within the cell population. FGFR3-TACC3 fusion induces aneuploidy.
The upper panel is a karyotype analysis of Rat1A cells transduced with control or FGFR3-TACC3 lentivirus and treated with vehicle (DMSO) or PD173470 (100 nM) for five days.
Karyotype analysis. Cultured cells were colcemid (20 ng/ml) treated for 90 minutes before harvesting for karyotopic analysis as detailed in Extended Experimental procedures. At least one hundred cells in metaphase were examined for chromosome count. PMSCS was scored in cells where a majority of the sister chromosomes were no longer associated. Two-tailed unpaired t-tests with Welch's correction were performed for comparison of means analysis.
Karyotypic Analysis. The colcemid treated cells were trypsinized, centrifuged for 7 minutes at 200×g, and the cell pellet re-suspended in warmed hypotonic solution and incubated at 37° C. for 13 minutes. The swollen cells were then centrifuged and the pellet re-suspended in 8 ml of Carnoy's fixative (3:1 methanol:glacial acetic acid). The cell suspension was centrifuged and washed twice in Carnoy's fixative. After the last centrifugation, the cells were resuspended in 0.5 to 1 ml of freshly prepared fixative to produce an opalescent cell suspension. Drops of the final cell suspension were placed on clean slides and air-dried. Slides were stained with DAPI and metaphases were analyzed under a fluorescent microscope.

In test [1] the test system is Rat1. Put plainly: Soft agar colony assay, Rat1 cells. In kind it is cell-based, rat. The following applies: Rat1 cells transduced with the construct. An excerpt: FGFR1-TACC1 and FGFR3-TACC3 induce anchorage-independent growth in Rat1A fibroblasts. The number of soft agar colonies was scored from triplicate samples 14 days after plating. Representative microphotographs are shown.

In a further test the test system is Balb 3T3. Put plainly: Soft agar colony assay, Balb 3T3 cells. Type of test: cell-based. The following applies: Balb 3T3 cells transduced with the construct.
For test [2], the system named is Ink4A;Arf-/- astrocytes in immunodeficient mice. The test can be described thus: Subcutaneous tumor xenograft formation by lentivirus-transduced Ink4A;Arf-/- astrocytes. Type of test: in vivo, mouse. The following applies: Ink4Arf-/- astrocytes expressing the construct. An excerpt: FIG. 3B are photomicrographs showing of immunofluoresence staining of tumors from mice injected with Ink4A; Arf−/− astrocytes expressing FGFR3-TACC3 showing positivity for glioma-specific (Nestin, Oig2 and GFAP) and proliferation markers (Ki67 and pHH3). Sub-cutaneous tumors were generated by Ink4A; Arf−/− astrocytes expressing FGFR-TACC fusions.
Subcutaneous xenografts and drug treatment. […] For experiments with FGFR inhibitors, mice carrying ˜200-300 mm 3 subcutaneous tumors derived from Ink4A; Arf−/− astrocytes were randomized to receive 50 mg/kg PD173074 in 0.05 M lactate buffer (pH 5) or an equal volume of lactate buffer by oral gavage. Treatment was administered for three cycles consisting of four consecutive days followed by two days of rest. […] Data are expressed as mean±SE.

Test [3] has as its system Rat1. Put plainly: Subcutaneous tumor xenografts formed by transduced Rat1 cells. Type of test: in vivo, rat. The following applies: Rat1 cells expressing the construct.

B1: FGFR3: wild type FGFR3 expressed by lentivirus (protein, listed as Homo sapiens)
chain: MGAPACALALCVAVAIVAGASSESLGTEQRVVGRAAEVPGPEPGQQEQLVFGSGDAVELSCPPPGGGPMGPTVWVKDGTGLVPSERVLVGPQRLQVLNASHEDSGAYSCRQRLTQRVLCHFSVRVTDAPSSGDDEDGEDEAEDTGVDTGAPYWTRPERMDKKLLAVPAANTVRFRCPAAGNPTPSISWLKNGREFRGEHRIGGIKLRHQQWSLVMESVVPSDRGNYTCVVENKFGSIRQTYTLDVLERSPHRPILQAGLPANQTAVLGSDVEFHCKVYSDAQPHIQWLKHVEVNGSKVGPDGTPYVTVLKTAGANTTDKELEVLSLHNVTFEDAGEYTCLAGNSIGFSHHSAWLVVLPAEEELVEADEAGSVYAGILSYGVGFFLFILVVAAVTLCRLRSPPKKGLGSPTVHKISRFPLKRQVSLESNASMSSNTPLVRIARLSSGEGPTLANVSELELPADPKWELSRARLTLGKPLGEGCFGQVVMAEAIGIDKDRAAKPVTVAVKMLKDDATDKDLSDLVSEMEMMKMIGKHKNIINLLGACTQGGPLYVLVEYAAKGNLREFLRARRPPGLDYSFDTCKPPEEQLTFKDLVSCAYQVARGMEYLASQKCIHRDLAARNVLVTEDNVMKIADFGLARDVHNLDYYKKTTNGRLPVKWMAPEALFDRVYTHQSDVWSFGVLLWEIFTLGGSPYPGIPVEELFKLLKEGHRMDKPANCTHDLYMIMRECWHAAPSQRPTFKQLVEDLDRVLTVTSTDEYLDLSAPFEQYSPGGQDTPSSSSSGDDSVFAHDLLPPAPPSSGGSRT
Turning to B1, in the test with Rat1A cells, the “Average variation from mean number” value is 1.3, the “Mean number (chromosomal number)” value was 42.1, the Percent aneuploidy is reported as 33% and the “Range (chromosomal number)” value is recorded as 35-44. The molecule further yielded a soft agar colonies in the test on Rat1 [1] of 0. This molecule showed a soft agar colonies in the test with Balb 3T3 of 0. In addition, in test [2], the “Subcutaneous tumor xenografts (tumors formed/injections)” value was 0/5. Besides, the “Subcutaneous tumor xenografts (tumors formed/injections)” value in the test with Rat1 [3] was 0/5.
